One sequence from publication PMC10197177 can be followed below.

As a reminder, the Kd is the constant that tells how readily two partners part at equilibrium.

The data set relates to BG4 (anti-G-quadruplex antibody). As to the kind of experiment: sandwich ELISA. As to conditions: K1 pre-bound to immobilized wild-type spike, ELONA: 20 mM Tris, 5 mM KCl, 2 mM MgCl2, 0.5 mM CaCl2, pH 7.4, room temperature, BG4 sandwich ELISA: Methods give 20 mM Tris, 5 mM MgCl2 …. (In general: In an ELISA, binding on a coated surface is turned into a signal by an enzyme label.)

Regarding “AATGGATCCACATCTACGAGCTCGAACGCCCGGAGGAGACGGGGGCAGGGCGTGTTCACTGCAGACTTGACGAAGCT [K1 (truncated working aptamer)]”, the Kd was 1.77 nM. This lies in the single-digit nanomolar range.
